Results as given in patent publication US20100113291A1 (CENTRE NATIONAL DE LA RECHERCHE SCIENTIFIQUE, priority 2006, published 2010).

Format: biochemical
Conditions: acetoacetyl-CoA and NADPH both at 100 μM

B1: MabA-wt: wild-type protein MabA of Mycobacterium tuberculosis, SEQ ID NO: 1 (protein, listed as Mycobacterium tuberculosis)
chain: MTATATEGAKPPFVSRSVLVTGGNRGIGLAIAQRLAADGHKVAVTHRGSGAPKGLFGVECDVTDSDAVDRAFTAVEEHQGPVEVLVSNAGLSADAFLMRMTEEKFEKVINANLTGAFRVAQRASRSMQRNKFGRMIFIGSVSGSWGIGNQANYAASKAGVIGMARSIARELSKANVTANVVAPGYIDTDMTRALDERIQQGALQFIPAKRVGTPAEVAGVVSFLASEDASYISGAVIPVDGGMGMGH
- Vi: 0.60 ± 0.01 µmol/min/mg
